According to IntAct's records for PubMed 11956200:

B1: Mitochondrial import inner membrane translocase subunit Tim8 A (Homo sapiens), O60220 (parent)
chain: MDSSSSSSAAGLGAVDPQLQHFIEVETQKQRFQQLVHQMTELCWEKCMDKPGPKLDSRAEACFVNCVERFIDTSQFILNRLEQTQKSKPVFSESLSD
partner: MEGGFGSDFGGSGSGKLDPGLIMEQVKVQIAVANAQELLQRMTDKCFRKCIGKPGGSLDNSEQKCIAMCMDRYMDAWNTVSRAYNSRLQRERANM

Variants of: B1
Conditions: with tim13_human TIMM13, Q9Y5L4
MDSSSSSSAAGLGAVDPQLQHFIEVETQKQRFQQLVHQMTELCWEKCMDKPGPKLDSRAEACFVNWVERFIDTSQFILNRLEQTQKSKPVFSESLSD [C66W] was tested, and the “effect of a mutation on the interaction” value was “disrupting interaction strength”.
